# What was measured:
# [1] = target: PsiD R135A/Q136A (Psilocybe cubensis) (UniProt P0DPA6); assay: SEC
# SEC = target: the molecule itself; assay: SEC
# crystal structure [2] = target: the molecule itself; assay: crystal structure
# crystal structure [3] = target: the molecule itself; assay: crystal structure; remark: listed apart in the source
molecule,measurement,setting,value
PsiD R135A/Q136A (from UniProt P0DPA6 1-402) (enzyme),stoichiometry N,[1],2
"PsiD (1–439) S403A (enzyme, Psilocybe cubensis, UniProt P0DPA6 1-439, looked up) MQVIPACNSAAIRSLCPTPESLRNMGWLSVSDAVYSEFIGELATRASNRNYSNEFGLMQPIQEFKAFIESDPVVHQEFIDMFEGIQDSPRNYQELCNMFNDIFRKAPVYGDLGPPVYMIMAKLMNTRAGFSAFTRQRLNLHFKKLFDTWGLFLSSKDSRNVLVADQFDDRHCGWLNERALSAMVKHYNGRAFDEVFLCDKNAPYYGFNSYDDFFNRRFRNRDIDRPVVGGVNNTTLISAACESLSYNVSYDVQSLDTLVFKGETYSLKHLLNNDPFTPQFEHGSILQGFLNVTAYHRWHAPVNGTIVKIINVPGTYFAQAPSTIGDPIPDNDYDPPPYLKSLVYFSNIAARQIMFIEADNKEIGLIFLVFIGMTEISTCEATVSEGQHVNRGDDLGMFHFGGASFALGLRKDCRAEIVEKFTEPGTVIRINEVVAALKA",stoichiometry N,SEC,2
"L-tryptophan decarboxylase PsiD, full-length (1–439), wildtype, self-cleaved mature enzyme (enzyme, Psilocybe cubensis, pyruvoyl prosthetic group at 403 (Pvl403, formed from Ser403)) chain 1: MQVIPACNSAAIRSLCPTPESLRNMGWLSVSDAVYSEFIGELATRASNRNYSNEFGLMQPIQEFKAFIESDPVVHQEFIDMFEGIQDSPRNYQELCNMFNDIFRKAPVYGDLGPPVYMIMAKLMNTRAGFSAFTRQRLNLHFKKLFDTWGLFLSSKDSRNVLVADQFDDRHCGWLNERALSAMVKHYNGRAFDEVFLCDKNAPYYGFNSYDDFFNRRFRNRDIDRPVVGGVNNTTLISAACESLSYNVSYDVQSLDTLVFKGETYSLKHLLNNDPFTPQFEHGSILQGFLNVTAYHRWHAPVNGTIVKIINVPGTYFAQAPSTIGDPIPDNDYDPPPYLKSLVYFSNIAARQIMFIEADNKEIGLIFLVFIGMTEISTCEATVSEGQHVNRGDDLGMFHFGG chain 2: SSFALGLRKDCRAEIVEKFTEPGTVIRINEVVAALKA",stoichiometry N,crystal structure [2],2
"PsiD (50–439), self-cleaved, co-crystallised with L-tryptophan (domain or fragment, Psilocybe cubensis, pyruvoyl prosthetic group at 403 (Pvl403, formed from Ser403)) chain 1: NYSNEFGLMQPIQEFKAFIESDPVVHQEFIDMFEGIQDSPRNYQELCNMFNDIFRKAPVYGDLGPPVYMIMAKLMNTRAGFSAFTRQRLNLHFKKLFDTWGLFLSSKDSRNVLVADQFDDRHCGWLNERALSAMVKHYNGRAFDEVFLCDKNAPYYGFNSYDDFFNRRFRNRDIDRPVVGGVNNTTLISAACESLSYNVSYDVQSLDTLVFKGETYSLKHLLNNDPFTPQFEHGSILQGFLNVTAYHRWHAPVNGTIVKIINVPGTYFAQAPSTIGDPIPDNDYDPPPYLKSLVYFSNIAARQIMFIEADNKEIGLIFLVFIGMTEISTCEATVSEGQHVNRGDDLGMFHFGG chain 2: SSFALGLRKDCRAEIVEKFTEPGTVIRINEVVAALKA",stoichiometry N,crystal structure [3],2

# — article PMC11929908 (Nature Communications, 2025)
